Data as given in the DeepSol protein solubility set.

experiment: soluble on expression in E. coli; label from the status in PepcDB or PDB records

| Sequence | soluble on expression in E. coli |
| --- | --- |
| TKNWSWTASANAAWQKVRIKNLTLTPGAPSPDTEVGPWIDAYQMQVFSTDYAPYSFYLYKQLYDAETGQPIEGLYADLDGDGEITNKDRYHHHSPAPDWILGFSTSLRYKKWTLSTSLRANIGGYIFNGMAMNTGAWETMSYNDYQLNNLNRSFLDTRFTKRQFLSDHYLENASFLKMDNLQLSYDFGRIYKTIGLHASAMVQNVFTVTKYKGVDPETANGVDTSVYPRPRTYSITIGLNF | not soluble |
| SNAMKIVIAPDSYKESLSALEVATAIEQGFREIWPDADYLKLPLADGGEGTVEAMVEATAGRIVHVEVTGPLGHRVNAFYGLSGDARSAFIEMAAASGLEQVPPAQRDPLKTTSWGTGELIRHALDAGVEHIIIGIGGSATNDGGAGMVQALGARLRDAQGNDIAQGGIGLETLASIDISGLDKRLSACHIEVACDVTNPLTGKEGASAVFGPQKGATPEMIERLDTALTRYAHLIARDLHVDVLDLAGGGAAGGMGAALYAFCGAQLRRGIEIVTDALHLEACLADADLVITGEGRIDSQTIHGKVPIGVANIAKRYNKPVIGIAGSLTADVSVVHEHGLDAVFSVIYTICTLEDALKNASENVRMTARNVAATLKAGQQLR | soluble |
| METIKSVDIYELGSPGEKSSPWSSTILIVKLTSSNGNIGYGEAPTTFMTLPVKESMREVERVFKDQNYFNIEKNMREFYKHSFYLSRSMEATSALSAFEIASWDLIGKDLGTPVYNLLGGEYNSELRAYANGWYSDCLEPDDFVSRAKEYIKKGYTAFKFDPFRNNFDRIGNDGIKKAVDIVSAMRSELGENIDLLIECHGRFSTKYAIKVGQALDEFNPLFIEEPIHPEMELGLFDFKRYVNTPVALGERLLNKEDFARYISQGMVDIVQADLTNSKGILEAKKISAIVESFGGLMAFHNAFGPVQTAATLNVDYTLTNFLIQESFEDSWPDWKRNLFSGYRIENGHFKLSGKPGLGITADEKLMEKLIYDGMEEFNKNEPSWVVSGTYK | not soluble |
| MGSDKIHHHHHHMALASTLATCLNSKNTQYDIIHHPYTLSSMATAEAAHIPGDRLAKTLLLEDEMGYVAAVIPSNHHLHMAALCEQTGRKLVLAHEDEIREVFKDCDLGAIPPVAMAYGMQTYVDDSLMKHPDVYFEAGDHQELVHMSMDQFSSLMSDAEQGHFSRRMM | not soluble |
| MTATSLWELAERARKRLSEIAKGNRDRALLAMADLLEARWEEVLRANREDLEEAERTGLPKAKLDRLALKEKDLKTLTEGLRQIARLPDPLGRIEGLAKRPNGLRVGRMRVPLGLIGFIYEARPGATVEAVSVALKAGNAMLLRGGKEAFRSNRALVALWHEALGEAGLPEEAVTLVPTTDREAVLEMCRLELLDLLIPRGGEELIRLVQREARVPVLAHAKGVNHLYVDKKADLSMALRLALNGKTQRPAVCNALETVLVHEKVAEAFLPRLEKAMREKGVELRACPRALPLLKEAVPAREDEWDREYLDLVLRVKVVSGLEEALAHIARYGSRHTEAICTEDPKAAWRFLEEVDASLVLWNASTRFNDGFELGLGAEIGISTSKLHAYGPMGPMELTTLKWVALGEGQERT | soluble |
| MGSDKIHHHHHHVKFRVERDVLAEAVTWTARSLSPRPPVPVLSGLLLKAEAGTVSLSSFDYETSARLEIPADISVEGTILVSGRLLADICRSLPSAPVDVETDGNKVTLTCRRSSFHLATMPEAEYPPLPALPTISGTVPGDSFAQAVSQVIIAASKDDTLPILTGVRMEIEDDLITLLATDRYRLAMREVPWKPVTPGISTSALVKAKTLNEVAKTLGNSGDINLALADDDSRLIGFESGGRTTTSLLVDGDYPKIRSLFPDATPIHATVQTQELVEAVRRVSLVAERNTPVRLAFTDGQLHLDAGTGEDAQASEELEAQLTGDEITVAFNPHYLIEGLSVIETKFVRFSFTTAPKPAMITAQVDADGEDQDDYRYLVMPVRLPN | not soluble |
| MADRKSDEGEDEYQHKEQMVTNRTSSFQPKSTEDSISKLAKMRAADRREEFMEERASFSAVKRGYQAGDDEEDDFTAEEEPPAKKPLTVAERLMAAMGHKAGEGLGKHGQGISEPIASSTQRGRTGLGHNAGKATARDFNEVWDETTEEKTVVERVEWMTDIEEEKRAEICEQLKDDKWMVIGKEKRTIDDETKFCSQQSITEMIEAKNVFDLMSDKDLREARTRANPYETIGSAFFQNRAAMKTANMDKIYDWILSRENTENDRFLLKNPLQESQTAENVDRSEDLFYFADVCAGPGGFSEYMLWRKGFYNAKGFGFTLAGKDDFKLFKFTASSQYFFETFYGTKDNGDVMDPVNIDSLEAHISRGTSGLGVHLMMADGGFSVEGQENIQEILSKRLYLCQLLVSLCIVREGGNFFCKLFDIFTPFSVGLIYLMRVCYQSVSLHKPHTSRPANSERYITCKGLRKEFANVVKEYLKRVNRKLDELKNKKSHDDVTDLMPLDVIEADQIFMDEIIRHNEFLANRQTLYLRKYQSFAKNQGQFDKDQGNLRDECLKYWQVPNKQRPRGGDRGNRHDNMQRLNPLQVYGKYCKKVCGESEIGNTFPDFSLNCLDAPLPNIPYEEYRFVPLASSGSPNLLIAAGDSAFIFRSGRFESISADHIRIPENTILLVDWAEEVVRGDGNRIKISSEPQVVRIIDAAVLFGDDVSNLPYEERMKAAEKFVAALKQTNRKVKKGWGHRAEMIKPHLKICAKTYSLAELDEFRSNLEKLEHNRELAVLFTEGEFTFRCQALRFTRIIKQEWRMGWSKSQQKPYAHSQEHQNAGSIPVELWAEKSIYSSFWDSVICLNKDKKKLMEAMEHTKGKCPIPSSIWSWKACILNLFPFFSVRTPYGPEKILNYPEPFEGKPTIAALKAQIENTDLIVKRVRN | not soluble |
| MSTPRPSLTLTLLQAREAAMSFFRPSLNQHGLTEQQWRVIRILRQQGEMESYQLANQACILRPSMTGVLARLERDGIVRRWKAPKDQRRVYVNLTEKGQQCFVSMSGDMEKNYQRIQERFGEEKLAQLLELLNELKKIKP | soluble |
| KRKFACVECRQQKSKCDAHERAPEPCTKCAKKNVPCILKRDFRRTYKRARNEAIEKRFKELTRTLTNLTSDE | soluble |
| ANKLDSKKLTRSNGTTLEYSQITDADNATKAVETLKNSIKLEGSLVVGKTTVEIKEGTVTLKREIEKDGKVKVFLNDTAGSNKKTGKWEDSTSTLTISADSKKTKDLVFLTDGTITVQQYNTAGTSLEGSASEIKNLSELKNALK | soluble |
| MGSDKIHHHHHHMNFREEFKLLLRARYPLIYIPTYEEERVEAAIREEATNQGNRPVYTWDFVDGYQGNPNDVGFGRRNPLQALEFIEKLPASAPAVLILRDYHRFLDDVAIARKLRNLSRLLKSQPKNIVLLSPRIAIPDDLTEVLTVVEFPLPAAAEIKTEVERLLQSTGNSLSGKVLDDLVLSCQGLSMERIRRVLAKAIATHGELQPEDVDLVLEEKRQTIRQTQILDFYPATEQISDIGGLDNLKDWLIRRGGSFTDKARQYGLPHPRGLMLVGIQGTGKSLTAKAIAHHWHLPLLRLDVGRLFGGLVGESESRTRQMIQVAEALAPCILWIDEIDKAFAGLGSKGDAGTASRVFGTFINWLAEKSSPVFVVATANDIQALPPEMLRKGRFDEIFFVGLPTQEERKAIYDVHLSRLRPHNLKSYDIERLAYETPDFSGAEIEQTLIEAMHIGFSQNRDFATDDILEAASQIVPLARTAVEQIQQLQEWAAAGRARLASKHNPLSERLRRTT | not soluble |
| MGSDKIHHHHHHMGACQPNNSQLYIGIDGGGSKCRATIYTAEHQKLGTGVAGRANPLHGLEQTFLSITESTQLAIADAGLAPSTSQQLIAGIGLAGVNVSHYYQHIVNWQHPFKAMYLTTDLHTACIGAHNGEDGAVIITGTGSCGYAHVGDNTICLGGHGFALGDKGSGAWLGLKAVEHVLLALDGFACATSLTERLLSHFNALDAMGIVEQLAGQSSSAYAKLARSVLACAQEGDAVAISIVKEGAEYICKLARKLFAVNPSRFSMIGGLVEPLYPWLDEDVAKRISPALTPPEFGAFLFARKQFNTKA | not soluble |
| NKDMEFTLRANFTYSTNKVNYYEEGDTKYEYTSATGRPNGYMKGYIALGLFKDQEEINNSPKQDFGSYLPGDIKYKDVNGDGVVNSDDQVPVSYQDYPRLMYGFGGEFRWKKLTLGVRFSGIGNTDYYKIWTWGSNNVGYIPFYDGKLGNVLTIAANPANRWIPADYDDPSIPASMRENPNAMFPRLSYGSNQNNAQASTFWKGNRKYLRLDEISLNYNCNCNLLKSIGINSIDLAVVANDLHTWDSVKLFDPELATSNGRAYPIPGRVSFQAIVHF | not soluble |
